Measurements reported in patent US20200317768A1.

Assays:
[1] = biological target: human FcγRIIIaV extracellular domain, C-terminal His-tag (human) (UniProt P08637); experiment: SPR 25C; FcgR bound per captured antibody, relative to parent B3
[2] = biological target: human FcγRIIaR extracellular domain, C-terminal His-tag (human) (UniProt P12318); experiment: as above
human FcγRIIaR extracellular domain, C-terminal His-tag (human), sequence (P12318 34-217 H167R): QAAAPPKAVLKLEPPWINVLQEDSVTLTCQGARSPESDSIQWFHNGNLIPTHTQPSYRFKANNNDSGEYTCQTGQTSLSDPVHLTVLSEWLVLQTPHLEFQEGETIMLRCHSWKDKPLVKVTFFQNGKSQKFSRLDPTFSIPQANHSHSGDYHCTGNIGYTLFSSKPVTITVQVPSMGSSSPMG

## GpH7-B3 variant V266F/GpL16-k0 (antibody)
[1]
  Binding to human FcgRs (parent B3 = 100) (parent B3 = 100): 2
[2]
  Binding to human FcgRs (parent B3 = 100) (parent B3 = 100): 8
